Earlier results, collected in PMC11273449.

Assays:
[1] = target: Spike S1 subunit, BA.1 (SARS-CoV-2 BA.1 (Omicron)) (UniProt P0DTC2); assay: cited; conditions: 5' hexynyl
[2] = system: Influenza A virion (Influenza A/PR/8/34); assay: cited; conditions: 5' hexynyl

Row | Sequence | Kd [1] [µM] | Kd [2] [µM]
1 | TTTTTACGCCAAGGTGTCACTCCGTAGGGTTTGGCTCCGGGCCTGGCGTCGGTCGCGAAGCATCTCCTTGGCGT [Aptamer 4 (particle)] | 0.005 | –
2 | TTTTTGGCAGGAAGACAAACAGCCAGCGTGACAGCGACGCGTAGGGACCGGCATCCGCGGGTGGTCTGTGGTGCTGT [Influenza A aptamer (particle)] | – | 0.055
